Patent US20140072563A1 (Regeneron, published 2014)
Substitutions are numbered along the chain they refer to. In names and notes the source's numbering stands.

B1: H1M1819N (antibody, V domains shown)
VH: EVQLVESGGGVVRPGGSLRLSCAASGFTFDDYAMHWVRQAPGKGLEWVAGISWNSGSIDYADSVKGRFTISRDNAKNSLYLQMNSLRAGDTALYYCAKDILDLDYYGLDVWGQGTTVTVSS
VL: DIQMTQSPSSLSASVGDRVTITCRASQDISSYLAWYQQKPGKVPNLLIYDASSLQSGVPSRFSGSGSGTDFTLTLSSLQPEDFASYYCQNYNSAPYTFGQGTKLEIK
notes: Hybridoma chimeric antibody: human variable domains, mouse constant domains (H1M prefix, mouse Fc)
B2: H1M1828N (antibody, V domains shown)
VH: EVQLVESGGGLVQPGRSLRLSCAASGFTFDDYAMYWVRQAPGKGLEWVSGISWNSGSIGYADSVKGRFTISRDNAKNSLYLQMDSLRAEDTALYYCARDMMEVDLYGMDVWGQGTTVTVSS
VL: DIQMTQSPSSVSASVGDRVTITCRASQDISSWLAWYQQKPGTAPKFLIYETSSLQSGVPSRFSGSGSGTDFILTISSLQPEDFATYYCQQTDSFPHTFGQGTKLEIR
notes: as for B1
B3: H2M1821N (antibody, V domains shown)
VH: EVQLVESGGGLVQPGRSLRLSCAASGFTFDDYAMHWVRQAPGKGLEWVSSISWNSGSIGYADSVKGRFTISRDNAKNSLYLQMNSLKPEDTALYYCTKDTDYGDYLDAFDIWGQGTMVAVAS
VL: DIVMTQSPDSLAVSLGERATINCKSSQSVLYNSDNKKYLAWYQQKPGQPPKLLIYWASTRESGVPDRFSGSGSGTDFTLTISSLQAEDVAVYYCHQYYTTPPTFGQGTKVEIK
notes: Hybridoma chimeric antibody: human variable domains, mouse IgG2 Fc (H2M prefix)
B4: H2M1930N (antibody, V domains shown)
VH: EVQLVESGGGLVKPGGSLRLSCVASGFTFSSYNMNWVRQAPGKGLEWVSFISGSSNYIHYADSVKGRFTISRDNAKNALYLQMNSLRAEDTAVYYCARDDGDYDWFDPWGQGTLVTVSS
VL: EIVLTQSPGTLSLSPGERATLSCRASQSVSSSYLAWYQQKPGQAPRLLIYGTSSRATGIPDRFSGSGSGTDFTLTISRLEPEDFAVYYCQQYDNSYTFGQGTKLEIK
notes: as for B3
B5: H2M1934N (antibody, V domains shown)
VH: EVQLVQSGGGLVKPGGSLRLSCAASGFTFSNFNMNWVRQAPGKGLEWVSFISSLSTYTYYADSVKGRFTISRDNAKNSLYLQMNSLRAEDTAVYYCARDDGDHDWFDPWGQGTLVTVSS
VL: B4 VL with G9D, S32N, G51S, T52A, S54N, N94S
notes: as for B3
B6: H2M1829N (antibody, V domains shown)
VH: EVQLVESGGGVVRPGGSLRLSCVASGFTFDDYGMSWVRQAPGKGLECVSGINWNGGSTDYADSVKGRFTISRDNAKNSLYLQMNSLRAEDTALYHCARDGGDWDYFDLWGRGTLVTVSS
VL: EILMTQSPATLSVSPGERATLSCRASQSVSSNLAWYQQKPGQAPRLLIYGASTRATGIPARFSGSGSGTEFTLTISSLQSEDFAIYYCQEYNDWPLTFGGGTKVEIK
notes: as for B3
B7: H2M1824N (antibody, V domains shown)
VH: B6 VH with V23A, L93S, H95Y
VL: B6 VL with L3V, I85V, Y87F
notes: as for B3
B8: H2M1827N (antibody, V domains shown)
VH: B6 VH with V23A, N52S, S57N
VL: B6 VL
notes: as for B3
B9: H2M1936N (antibody, mouse IgG2, V domains shown)
VH: EMQLVESGGGLVQPDRSLRLSCAASGFNFDNYAIHWVRQAPGKGLEWVSGISWNSGNIGYADSVKGRFTISRDNAKNSLFLLMNSLRPDDSALYYCTRGYNWNALSPMDVWGQGTTVTVSS
VL: B1 VL with I21V, D28G, S31N, N45K, D50A, S53T, L75I, F83V, Y96M, L104V
B10: H2M1937N (antibody, mouse IgG2, V domains shown)
VH: QVQLQQWDAGLLKPSETLSLTCAVYGGSFSSYYWSWIRQPPGKGLEWIGEINHRGSTNYNPSLKSRVTISVDTSKNQFSLKLRSVTAADTAVYYCARGGVAARPDWHFFDYWGQGTLVTVSS
VL: DIQMTQSPSSLSASVGDRVTITCRASQVIRNDLGWFQQRPGKAPKRLIYAASSLQSEVPSRFSGSGSGTEFTLTITSLQPEDFATYYCLQHNSYPLTFGQGTRLEIK
B11: H2M1930N (antibody, mouse IgG2, V domains shown)
VH: B4 VH
VL: B4 VL
B12: H2M1934N (antibody, mouse IgG2, V domains shown)
VH: B5 VH
VL: B4 VL with G9D, S32N, G51S, T52A, S54N, N94S
B13: H1M1940N (antibody, V domains shown)
VH: QVQVVESGGGVVQPGRSLRLSCAASGFTFSDYGMHWVRQAPGKGLEWVAIISYDGSNKYYADSVKGRFTVSRDNSKNTLYLQLDSLRPEDAAVFYCAREGAFNLDYYAMDVWGQGTTVTVSS
VL: AIQMTQSPSSLSASVGDRVTITCRASQDIRNDLGWYQQKPGKAPNLLIYAASSLQSGVPSRFSGSGSGTDFTLTISSLQPEDFATYYCLQDSNYPLTFGGGTKVEIK
B14: H2M1829N (antibody, mouse IgG2, V domains shown)
VH: B6 VH
VL: B6 VL
B15: H2M1938N (antibody, mouse IgG2, V domains shown)
VH: EVQLVESGGGVVRPGGSLRLSCAASGFTFDDYGMSWVRQVPGKGLEWVSGLNWNGGITGYTDSVKGRFTISRDNAKNSLYLQMNSLRAEDTAFYHCARDSGDQDAFDIWGQGTMVTVSS
VL: QIVMTQSPATLSVSPGERATLSCRASQSITPYLAWYQQKPGQTPRLLIYGVSTRATGIPARFSGSGSGTEFTLTISSLQSEDFAVYYCQQYDNWYTFGQGTKLEIK

Target: hErbB3.mmh (soluble monomeric human ErbB3 extracellular domain with C-terminal myc-myc-hexahistidine tag) (human, UniProt P21860 20-642)
Experiment: SPR (Biacore), 25 C, mAb capture format
Experimental: (§1) (Tables 2-4). Measurements were conducted on a Biacore 2000 or T100 instrument. […] Kinetic association (kₐ) and dissociation (kd) rate constants were determined by processing and fitting the data to a 1:1 binding model using Scrubber 2.0 curve fitting software.

Sequence of hErbB3.mmh (soluble monomeric human ErbB3 extracellular domain with C-terminal myc-myc-hexahistidine tag) (P21860 other isoform, or with tags, fused parts or gaps): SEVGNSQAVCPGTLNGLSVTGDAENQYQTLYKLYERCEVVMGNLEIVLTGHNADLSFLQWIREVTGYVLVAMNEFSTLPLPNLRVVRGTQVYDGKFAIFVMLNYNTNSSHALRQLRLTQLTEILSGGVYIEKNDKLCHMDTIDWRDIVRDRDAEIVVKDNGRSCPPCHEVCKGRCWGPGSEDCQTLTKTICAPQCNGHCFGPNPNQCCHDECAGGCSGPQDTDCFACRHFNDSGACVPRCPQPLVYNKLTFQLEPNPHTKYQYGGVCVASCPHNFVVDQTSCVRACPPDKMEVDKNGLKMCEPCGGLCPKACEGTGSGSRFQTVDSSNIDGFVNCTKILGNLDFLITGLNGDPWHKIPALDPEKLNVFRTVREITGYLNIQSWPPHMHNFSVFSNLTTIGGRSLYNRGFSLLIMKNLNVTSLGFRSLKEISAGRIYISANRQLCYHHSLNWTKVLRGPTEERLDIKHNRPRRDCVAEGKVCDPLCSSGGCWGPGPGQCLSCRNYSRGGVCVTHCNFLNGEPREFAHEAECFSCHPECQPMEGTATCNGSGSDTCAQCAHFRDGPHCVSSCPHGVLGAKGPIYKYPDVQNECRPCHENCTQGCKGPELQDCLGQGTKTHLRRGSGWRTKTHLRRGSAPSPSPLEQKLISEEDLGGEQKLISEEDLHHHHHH

Kd [nM]	T½ [min]	koff [s⁻¹]	kon [M⁻¹ s⁻¹]	Binder
1.01	36	0.000322	319000	B1
0.515	44	0.000265	513000	B2
0.867	58	0.000199	229000	B3
0.559	106	0.000109	196000	B4
0.438	157	7.35e-05	168000	B5
0.281	179	6.46e-05	230000	B6
0.205	254	4.56e-05	223000	B7
0.409	129	8.96e-05	219000	B8

Target: T1, hErbB3.hFc (soluble dimeric human ErbB3 extracellular domain fused to human Fc) (human)
T1 construct: called dimeric
Experiment: SPR (Biacore), 25 C, mAb capture format
Experimental: as §1

T1 sequence (chain, as listed by the source limits assumed): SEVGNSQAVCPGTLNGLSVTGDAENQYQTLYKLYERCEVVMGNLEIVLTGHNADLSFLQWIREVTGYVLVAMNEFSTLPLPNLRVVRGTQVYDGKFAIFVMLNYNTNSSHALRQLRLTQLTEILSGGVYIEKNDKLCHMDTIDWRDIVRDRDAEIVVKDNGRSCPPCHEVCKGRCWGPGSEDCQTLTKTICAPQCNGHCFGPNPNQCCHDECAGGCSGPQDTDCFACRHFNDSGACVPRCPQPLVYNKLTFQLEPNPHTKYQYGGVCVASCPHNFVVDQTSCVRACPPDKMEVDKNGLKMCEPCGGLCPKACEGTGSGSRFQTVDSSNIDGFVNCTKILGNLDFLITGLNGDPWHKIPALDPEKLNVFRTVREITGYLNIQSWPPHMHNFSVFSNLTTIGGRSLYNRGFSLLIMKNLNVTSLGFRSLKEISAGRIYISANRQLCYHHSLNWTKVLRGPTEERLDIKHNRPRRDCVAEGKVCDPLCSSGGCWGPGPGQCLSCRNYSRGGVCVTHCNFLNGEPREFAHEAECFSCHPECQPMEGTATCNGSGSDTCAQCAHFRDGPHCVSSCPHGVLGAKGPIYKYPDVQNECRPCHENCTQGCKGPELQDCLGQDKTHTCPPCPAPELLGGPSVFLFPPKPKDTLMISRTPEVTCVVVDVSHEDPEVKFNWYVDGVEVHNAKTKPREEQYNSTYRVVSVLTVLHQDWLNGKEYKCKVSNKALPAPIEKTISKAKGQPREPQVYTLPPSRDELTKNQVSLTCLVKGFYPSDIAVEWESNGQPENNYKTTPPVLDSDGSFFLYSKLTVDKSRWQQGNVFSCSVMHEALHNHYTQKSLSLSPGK

Kd [nM]	T½ [min]	koff [s⁻¹]	kon [M⁻¹ s⁻¹]	Binder
0.122	196	5.88e-05	480000	B1
0.0279	266	4.34e-05	1.56e+06	B2
0.0413	608	1.9e-05	461000	B3
0.0205	1400	8.27e-06	404000	B4
0.0222	1450	7.97e-06	359000	B5
0.0198	1340	8.61e-06	436000	B6
0.00334	8030	1.44e-06	431000	B7
0.0173	1520	7.58e-06	439000	B8

Target: ErbB3 (cell surface, on MCF-7, DU145, A431 and MCF7 cells) (human, UniProt P21860 20-1342)
Experiment: cell-based or functional assay

Percent inhibition of Akt phosphorylation, 0.01 µg/ml ErbB3 antibody, DU145 cells + 0.5 nM NRG1 [%]	Percent inhibition of Akt phosphorylation, 0.1 µg/ml ErbB3 antibody, DU145 cells + 0.5 nM NRG1 [%]	Percent inhibition of Akt phosphorylation, 0.5 µg/ml ErbB3 antibody, DU145 cells + 0.5 nM NRG1 [%]	Binder
6	30	67	B9
-13	41	71	B10
39	64	66	B11
20	56	67	B12
13	50	68	B13
22	74	74	B14
40	63	74	B15

Target: T1, hErbB3.hFc (soluble dimeric human ErbB3 …)
Experiment: blocking ELISA: antibody + 50 pM ErbB3-hFc on neuregulin1b-coated plate
Excerpt: To further characterize anti-hErbB3 mAbs of the present invention, their ability to block ligand binding was examined via ELISA. […] Plates were washed and non-sequestered (plate bound) ErbB3 was detected with an anti-Fc poly conjugated with horseradish peroxidase (HRP). Plates were developed with TMB (3,3′,5,5′-tetramethylbenzidine) and neutralized with sulfuric acid before reading absorbance at 450 nm on a Victor X5 plate reader. Data analysis used a sigmoidal dose-response model within Prism™ software. […] Maximal blocking for each antibody was calculated by taking the difference in absorbance from zero to 50 nM antibody on the inhibition curve, divided by the difference in absorbance from 50 pM to zero ErbB3 on the dose curve.

IC50 [nM]	Maximal Blocking (%)	Binder
0.0315	92	B1
0.03	95	B2
0.0285	96	B3
0.0222	87	B4
0.0261	80	B5
0.0238	98	B6
0.0251	99	B7
0.0229	98	B8
